In patent US12545745B2, “Method for treating a degenerative neurological disorders comprising administering ASM inhibitor” (KYUNGPOOK NATIONAL UNIVERSITY INDUSTRY-ACADEMIC COOPERATION …, priority 2013, dated 2026):

Molecular target: T1, ASM (Mus musculus, UniProt Q04519)
T1 construct: from tissue; host or cells: mouse serum/plasma and brain tissue (APP/PS1, RSD-stressed C57BL/6, FUS R521C mice)
T1 sequence (Q04519 45-627): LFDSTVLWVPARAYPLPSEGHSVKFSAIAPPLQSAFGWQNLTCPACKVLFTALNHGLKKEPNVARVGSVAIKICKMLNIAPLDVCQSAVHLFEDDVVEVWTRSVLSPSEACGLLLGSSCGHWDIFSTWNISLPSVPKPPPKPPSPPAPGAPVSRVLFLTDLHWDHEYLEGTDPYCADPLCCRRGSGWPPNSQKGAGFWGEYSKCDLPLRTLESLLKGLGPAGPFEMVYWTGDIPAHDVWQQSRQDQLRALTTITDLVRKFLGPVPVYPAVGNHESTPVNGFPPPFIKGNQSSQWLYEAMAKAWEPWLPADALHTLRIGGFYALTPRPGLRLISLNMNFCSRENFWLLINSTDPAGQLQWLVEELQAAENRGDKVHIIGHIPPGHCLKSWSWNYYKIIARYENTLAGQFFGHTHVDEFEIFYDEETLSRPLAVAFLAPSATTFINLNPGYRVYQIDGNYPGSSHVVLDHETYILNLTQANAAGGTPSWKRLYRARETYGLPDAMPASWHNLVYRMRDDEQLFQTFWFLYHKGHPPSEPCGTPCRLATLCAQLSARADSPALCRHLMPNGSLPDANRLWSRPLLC
Test: ASM activity / concentration level in serum (plasma) and brain tissue of APP/PS1 mice (UPLC)
Type: in vivo
Details: 7-month-old APP/PS1 mice, 50 mg/kg i.p. twice weekly, vs PBS; FIG. 51B
Description: More specifically, 3 μl of plasma, brain tissue and fibroblast samples from each mouse were mixed with an ASM activity buffer, and stored at 37° C. The hydrolysis reaction was completed by adding 114 μl of ethanol to the mixed solution, and then the mixed solution was centrifuged. 30 μl of the supernatant was transferred into a glass vial, and then 5 μl was applied to the UPLC system. The ASM concentration level was quantified in comparison with a bodipy (aminoacetaldehyde) combined with sphingomyelin and ceramide. The sphingomyelin and ceramide levels were extracted and quantified according to a known method, by extracting lipid from the sample, resuspending the dried lipid extract in 25 μl of 0.2% Igepal CA-630 (Sigma-Aldrich), and quantifying the concentration level of each lipid using the UPLC system. […] The animal test conducted was approved by the Kyungpook National University Institutional Animal Care and Use Committee (IACUC). Transgenic mouse line overexpressing APPswe (hAPP695swe) and PS1 (presenilin-1M146V) based on C57BL/6 mice (Charles River, UK) were used as Alzheimer's animal models [hereinafter, APP mice: mice overexpressing APPswe, PS1 mice: overexpressing presenilin-1M146V; GlaxoSmithKline]. […] The concentration level of ASM was measured as follows. Specifically, 3μ ? of mouse serum, brain tissue and fibroblast samples were mixed with ASM activity buffer and stored at 37° C. 114 μ ? of ethanol was added to terminate the hydrolysis reaction, followed by centrifugation. […] The ASM concentration levels were quantified by comparison with sphingomyelin and Bodipy (aminoacetaldehyde) conjugated with ceramide. The extraction and quantification of the sphingomyelin and ceramide was carried out by extracting and drying the lipids from the sample according to a known conventional method, and resuspending the dried lipid extract to 25 μl of 0.2% Igepal CA-630 (Sigma-Aldrich), and the concentration levels of each lipid were quantitated using the UPLC system. […] The concentration level of ASM was measured as follows. […]

B1: ASM-ab 23A12C3: self-made monoclonal ASM antibody, Koma biotech; heavy chain SEQ ID NO. 29, light chain SEQ ID NO. 30 (antibody)
heavy: MGWSWIFLFLLSGTAGVHSEVQLQQSGPVLVKPGASVKMSCKASGYTFTDYYMNWVKQSHGKSLEWIGVINPYNDGTSYNQKFKGKATLTVDKSSSTAYMELNSLTSEDSAVYYCAREKLYYYGRDYAMDYWGQGTSVTVSSAKTTPPSVYPLAPGSAAQTNSMVTLGCLVKGYFPEPVTVTWNSGSLSSGVHTFPAVLQSDLYTLSSSVTVPSSTWPSQTVTCNVAHPASSTKVDKKIVPRDCGCKPCICTVPEVSSVFIFPPKPKDVLTITLTPKVTCVVVDISKDDPEVQFSWFVDDVEVHTAQTKPREEQINSTFRSVSELPIMHQDWLNGKEFKCRVNSAAFPAPIEKTISKTKGRPKAPQVYTIPPPKEQMAKDKVSLTCMITNFFPEDITVEWQWNGQPAENYKNTQPIMDTDGSYFVYSKLNVQKSNWEAGNTFTCSVLHEGLHNHHTEKSLSHSPGK
light: MSSAQFLGLLLLCFQGTRCDIQMTQTTSSLSASLGDRVTISCRSSQDISNYLNWCQQKPDGTVKLLIYYTSRLHSGVPSRFSGSGSGTDYSLTISNLEQEDIATYFCQQDNTLPYTFGGGTKLEIKRADAAPTVSIFPPSSEQLTSGGASVVCFLNNFYPKDINVKWKIDGSERQNGVLNSWTDQDSKDSTYSMSSTLTLTKDEYERHNSYTCEATHKTSTSPIVKSFNRNEC
modifications: 23A12C3_Heavy chain; 23A12C3_Light chain
notes: self-made monoclonal ASM antibody, Koma biotech; 30
- level of ASM concentration (ASM activity) in the plasma: remarkably low
